In US20240384250A1, “FIBROBLAST GROWTH FACTOR 23 MODULATING COMPOUNDS” (THE UAB RESEARCH FOUNDATION, priority 2021, published 2024):

Target: recombinant FGF23 protein (species not stated for the assay)
Assay: sKL detection assay (sandwich): FGF23 coated, sKL sample, then Fc-FGFR1c, anti-Fc-HRP, A450

## FLAG-tagged soluble klotho (sKL) (receptor)
  fold binding activity against Com.sKL: 7 fold
